What follows are sequences tested on Escherichia coli TOP10 (assay: shrunken log2 fold change of peptide-encoding DNA abundance (4.5 h post-induction vs induction); higher = less antimicrobial activity (less host growth inhibition)). Conditions: time post-induction: 4.5 h; library: site-saturation at positions 5, 18, 19, 20.
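Note: peptides expressed intracellularly from a pBAD plasmid library in pooled LB shake-flask culture, induced with 0.3% L-arabinose, DNA abundance read by NGS, three biological replicates, DESeq2 with apeglm shrinkage.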

Row | Sequence | shrunken log2 fold change
1 | RRIRWRPPRLPRPRPRPCTAPRP | 0.119
2 | RRIRYRPPRLPRPRPRPPNSPRP | -0.384
3 | RRIRPRPPRLPRPRPRPFYVPRP | -0.459
4 | RRIRERPPRLPRPRPRPVLYPRP | -0.00668
5 | RRIRARPPRLPRPRPRPRQYPRP | -0.294
6 | RRIRNRPPRLPRPRPRPFHSPRP | -0.0225
7 | RRIRWRPPRLPRPRPRPCDEPRP | -0.0781
8 | RRIRNRPPRLPRPRPRPKVMPRP | -0.0516
9 | RRIRLRPPRLPRPRPRPMRGPRP | 0.839
10 | RRIRFRPPRLPRPRPRPEQNPRP | 0.264
11 | RRIRCRPPRLPRPRPRPVAPPRP | 0.436
12 | RRIRARPPRLPRPRPRPAFMPRP | 0.525
13 | RRIRFRPPRLPRPRPRPLWLPRP | -0.0557
14 | RRIRIRPPRLPRPRPRPIHFPRP | -0.0704
15 | RRIRFRPPRLPRPRPRPGIHPRP | -0.0365
16 | RRIRPRPPRLPRPRPRPAMAPRP | 0.388
17 | RRIRVRPPRLPRPRPRPQKPPRP | 0.116
18 | RRIRKRPPRLPRPRPRPTGGPRP | 0.13
19 | RRIRQRPPRLPRPRPRPGCYPRP | -0.451
20 | RRIRIRPPRLPRPRPRPVHYPRP | -0.497
21 | RRIRMRPPRLPRPRPRPKKMPRP | 0.249
22 | RRIRWRPPRLPRPRPRPKKQPRP | 0.176
23 | RRIRRRPPRLPRPRPRPKEPPRP | 0.293
24 | RRIRMRPPRLPRPRPRPLLGPRP | 0.495
25 | RRIRGRPPRLPRPRPRPWRMPRP | -0.000462

Row | Sequence | shrunken log2 fold change
26 | RRIRERPPRLPRPRPRPFKSPRP | -0.0568
27 | RRIRMRPPRLPRPRPRPQNPPRP | 0.26
28 | RRIRERPPRLPRPRPRPRVLPRP | 0.161
29 | RRIRSRPPRLPRPRPRPRYIPRP | -0.707
30 | RRIRPRPPRLPRPRPRPGGDPRP | 0.496
31 | RRIRVRPPRLPRPRPRPNSYPRP | -0.309
32 | RRIRTRPPRLPRPRPRPMWIPRP | -0.222
33 | RRIRSRPPRLPRPRPRPGEFPRP | -0.181
34 | RRIRVRPPRLPRPRPRPEKEPRP | 0.0209
35 | RRIRGRPPRLPRPRPRPQYHPRP | -0.141
36 | RRIRGRPPRLPRPRPRPNHNPRP | -0.409
37 | RRIRGRPPRLPRPRPRPRYWPRP | 0.248
38 | RRIRDRPPRLPRPRPRPGNFPRP | -0.0885
39 | RRIRARPPRLPRPRPRPRLFPRP | 0.465
40 | RRIRWRPPRLPRPRPRPKVGPRP | 0.0351
41 | RRIRERPPRLPRPRPRPQGAPRP | 0.169
42 | RRIRWRPPRLPRPRPRPYQDPRP | -0.411
43 | RRIRARPPRLPRPRPRPSEKPRP | -0.312
44 | RRIRPRPPRLPRPRPRPQWRPRP | 0.308
45 | RRIRARPPRLPRPRPRPHGRPRP | 0.0226
46 | RRIRRRPPRLPRPRPRPPEMPRP | 0.66
47 | RRIRQRPPRLPRPRPRPCWVPRP | -0.0437
48 | RRIRFRPPRLPRPRPRPWAGPRP | 0.116
49 | RRIRERPPRLPRPRPRPHLFPRP | -0.178
50 | RRIRVRPPRLPRPRPRPRRSPRP | 0.349

Row | Sequence | shrunken log2 fold change
51 | RRIRDRPPRLPRPRPRPMWSPRP | -0.0459
52 | RRIRGRPPRLPRPRPRPYASPRP | 0.143
53 | RRIRYRPPRLPRPRPRPWFGPRP | -0.0933
54 | RRIRKRPPRLPRPRPRPRFWPRP | 1.42
55 | RRIRMRPPRLPRPRPRPKGQPRP | 1.28
56 | RRIRMRPPRLPRPRPRPVYWPRP | 0.0687
57 | RRIRCRPPRLPRPRPRPLNLPRP | -0.489
58 | RRIRTRPPRLPRPRPRPGLIPRP | -1.04
59 | RRIRSRPPRLPRPRPRPRTSPRP | 0.211
60 | RRIRPRPPRLPRPRPRPVVEPRP | -0.0705
61 | RRIRMRPPRLPRPRPRPEVTPRP | 0.053
62 | RRIRDRPPRLPRPRPRPSSSPRP | 0.135
63 | RRIRSRPPRLPRPRPRPIWFPRP | 0.112
64 | RRIRCRPPRLPRPRPRPVGRPRP | 0.422
65 | RRIRSRPPRLPRPRPRPKQHPRP | 0.235
66 | RRIRTRPPRLPRPRPRPWPYPRP | -0.157
67 | RRIRCRPPRLPRPRPRPIWCPRP | 2.08e-06
68 | RRIRPRPPRLPRPRPRPWNRPRP | 0.122
69 | RRIRERPPRLPRPRPRPDPGPRP | 0.0879
70 | RRIRGRPPRLPRPRPRPSYPPRP | -0.215
71 | RRIRLRPPRLPRPRPRPKTNPRP | -0.0556
72 | RRIRQRPPRLPRPRPRPHPIPRP | -0.133
73 | RRIRDRPPRLPRPRPRPCQHPRP | -0.276
74 | RRIRDRPPRLPRPRPRPHYCPRP | -0.0438
75 | RRIRLRPPRLPRPRPRPMQVPRP | -0.0149

From the supplement of paper PMC9112550, “Optimization of the antimicrobial peptide Bac7 by deep mutational scanning” (BMC Biology, 2022)
